From paper PMC8327350, “Interaction between the transmembrane domains of neurotrophin receptors p75 and TrkA mediates their reciprocal activation” (The Journal of Biological Chemistry, 2021)
Blank lines part the entries; values can stand above or below the molecule they belong to. No end group written: not given here.

B2: p75-TM-C257A (C257A point mutant form of p75TM) (domain or fragment, human)
chain: MTRGTTDNLIPVYASILAAVVVGLVAYIAFKRWNSSKQNKQ
modifications: also: 15N-labeled in one set, unlabeled in the other
notes: methionine printed before T245; Seen as monomer, noncovalent homodimer and heterodimer with TrkA-TM in the NMR samples; also called p75-C257A; p75-C257A-TM; source: cell-free expression (E. coli Rosetta(DE3)pLysS S30 extract), in DPC micelles

Legend:
[1] = target: full-length TrkA tagged with mTurquoise (UniProt P04629)
full-length TrkA tagged with mTurquoise, sequence (P04629 33-796): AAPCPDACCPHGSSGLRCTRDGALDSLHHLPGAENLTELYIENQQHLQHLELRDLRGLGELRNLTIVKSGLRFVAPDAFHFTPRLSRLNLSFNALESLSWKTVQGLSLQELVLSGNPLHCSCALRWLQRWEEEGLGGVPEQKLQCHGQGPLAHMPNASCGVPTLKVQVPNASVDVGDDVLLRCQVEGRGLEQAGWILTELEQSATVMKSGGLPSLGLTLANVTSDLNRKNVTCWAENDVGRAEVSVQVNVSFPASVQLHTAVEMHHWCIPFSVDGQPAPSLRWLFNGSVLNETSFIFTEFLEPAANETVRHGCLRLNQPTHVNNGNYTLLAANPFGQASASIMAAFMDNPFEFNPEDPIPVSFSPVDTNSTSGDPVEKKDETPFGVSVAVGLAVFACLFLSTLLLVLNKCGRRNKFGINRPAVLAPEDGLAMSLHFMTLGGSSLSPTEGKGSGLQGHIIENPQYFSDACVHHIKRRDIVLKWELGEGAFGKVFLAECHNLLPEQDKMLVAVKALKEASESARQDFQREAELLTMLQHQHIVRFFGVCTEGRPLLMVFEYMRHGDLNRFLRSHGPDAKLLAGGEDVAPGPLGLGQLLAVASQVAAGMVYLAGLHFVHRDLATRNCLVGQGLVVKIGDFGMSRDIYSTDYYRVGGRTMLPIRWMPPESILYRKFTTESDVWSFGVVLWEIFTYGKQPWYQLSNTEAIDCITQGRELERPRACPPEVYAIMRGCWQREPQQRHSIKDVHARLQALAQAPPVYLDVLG

[2] = target: B2; assay: NMR cross-correlated relaxation (rotational correlation time, hydrodynamic radius); cross-correlated relaxation rates of p75-TM-C257A amide signals (I259, V263, G266, A269, Y270) of monomer, homodimer and heterodimer in DPC micelles, 45 °C; settings: both partners purified
[3] = target: the molecule itself; assay: NMR titration; unlabeled p75-TM-C257A added incrementally to 0.5 mM 15N-labeled TrkA-TM; DPC micelles, LPR 80, pH 5.9, 318 K, 20 mM sodium phosphate
[4] = target: the molecule itself; assay: NMR cross-correlated relaxation (rotational correlation time, hydrodynamic radius); cross-correlated relaxation rates of p75-TM-C257A amide signals (I259, V263, G266, A269, Y270) of monomer, homodimer and heterodimer in DPC micelles, 45 °C

Molecule: full-length p75 tagged with enhanced YFP (from UniProt P08138 29-427) (receptor)
EC50 of NGF for TrkA phosphorylation (activation loop, Western blot) in HeLa cells coexpressing TrkA and p75, NGF 0 to 100 ng/ml [1]: 0.299 nM

Molecule: B2
stoichiometry N [4]: 2 chains in the oligomer (homodimer)

Second part, led by results:

EC50 of NGF for TrkA phosphorylation (activation loop, Western blot) in HeLa cells coexpressing TrkA and p75–AGA, NGF 0 to 100 ng/ml [1]: 1.7 nM
Molecule: p75–AGA mutation (triple mutation A262,G266,A269 to Ile) (from UniProt P08138 29-427) (receptor)

EC50 of NGF for TrkA phosphorylation (activation loop, Western blot) in HeLa cells coexpressing TrkA and p75-TNFR, NGF 0 to 100 ng/ml [1]: 2.7 nM
Molecule: p75-TNFR (p75 with its TMD swapped with the one from the TNFR) (from UniProt P08138 29-427) (receptor)

stoichiometry N [2]: 1 TrkA-TM per p75-TM-C257A (heterodimer)
B1: human TrkA-TM (domain or fragment)
chain: MKKDETPFGVSVAVGLAVFACLFLSTLLLVLNKAGRRNK
modifications: also: 15N-labeled in one set, unlabeled in the other
notes: methionine printed before K410; human TrkA transmembrane domain, K410 to K447; the A at 442 is printed underlined and not explained; also called TrkA-TM-wt; TrkA-TMD; source: cell-free expression (E. coli Rosetta(DE3)pLysS S30 extract), in DPC micelles
binding result [3]: binds
